Holding throughout (assay): AlphaScreen or HTRF
Background: Bead proximity is the source of the signal in Alpha formats.

In assay [1] the target is Vitronectin (VN), biotinylated (UniProt P04004 20-478, biotin (sulfo-NHS-biotin)).
Assay [2] concerns the target T1, FGFR1, biotinylated (UniProt P11362 22-822, biotin (sulfo-NHS-biotin)).
T1 chain: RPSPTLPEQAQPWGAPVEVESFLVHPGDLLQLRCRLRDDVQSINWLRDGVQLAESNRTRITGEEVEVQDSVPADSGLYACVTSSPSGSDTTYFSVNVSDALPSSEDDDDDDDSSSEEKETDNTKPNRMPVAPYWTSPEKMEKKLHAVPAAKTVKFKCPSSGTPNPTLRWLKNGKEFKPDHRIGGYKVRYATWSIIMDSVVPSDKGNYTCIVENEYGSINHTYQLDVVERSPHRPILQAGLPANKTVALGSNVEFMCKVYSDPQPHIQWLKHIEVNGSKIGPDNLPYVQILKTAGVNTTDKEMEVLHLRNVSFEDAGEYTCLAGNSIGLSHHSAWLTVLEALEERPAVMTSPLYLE

Assay [3] concerns the target Recombinant human FGF2 (fibroblast growth factor-2), biotinylated (human, biotin (sulfo-NHS-biotin)).
The target of assay [4] is T1, FGFR1, biotinylated.

Sequence of Vitronectin (VN), biotinylated (P04004 20-478): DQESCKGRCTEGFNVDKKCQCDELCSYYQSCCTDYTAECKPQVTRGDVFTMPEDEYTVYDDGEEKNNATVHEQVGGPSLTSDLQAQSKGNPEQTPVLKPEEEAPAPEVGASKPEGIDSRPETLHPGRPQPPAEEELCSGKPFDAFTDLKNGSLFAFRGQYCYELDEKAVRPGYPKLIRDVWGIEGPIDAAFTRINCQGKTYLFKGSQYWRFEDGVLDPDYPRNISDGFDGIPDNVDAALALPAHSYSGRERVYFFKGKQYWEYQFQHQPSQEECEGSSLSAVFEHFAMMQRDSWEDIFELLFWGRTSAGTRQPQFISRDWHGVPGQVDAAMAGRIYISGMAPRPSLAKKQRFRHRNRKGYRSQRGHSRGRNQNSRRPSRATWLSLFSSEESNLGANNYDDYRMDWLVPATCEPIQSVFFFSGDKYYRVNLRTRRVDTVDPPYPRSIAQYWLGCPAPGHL

B1: SDC1_(45,47HEP): murine syndecan-1 ectodomain with heparin conjugated at residues 45 and 47 (domain or fragment)
chain: QIVAVNVPPEDQDGSGDDSDNFYGYGTGALPDTLSRQTPSTWKDVWLLTATPTAPEPTSSNTETAFTSVLPAGEKPEEGEPVLHVEAEPGFTARDKEKEVTTRPRETVQLPITQRASTVRVTTAQAAVTSHPHGGMQPGLHETSAPTAPGQPDHQPPRVEGGGTSVIKEVVEDGTANQLPAGEGSGEQDFTFETSGENTAVAAVEPGLRNQPPVDEGATGASQSLLDRKEVLG
modifications: p-propargyltyrosine (pPY) at 45 and 47, each joined by CuAAC to azido-heparin (azHEP)
With B1, the EC50 (commonly the concentration needed to bring the measured effect to its halfway point) in assay [1] amounted to 0.8 nM; in assay [2], 0.4 nM; in assay [3] it was 0.3 nM. The “EC50 of ternary complex formation with soluble non-tagged FGF2” value (from here on “EC50 … with soluble non-tagged FGF2”) in assay [4] amounted to 4 pM.

B2: SDC1_(37,45,47HEP): murine syndecan-1 ectodomain with heparin conjugated at residues 37, 45 and 47 (domain or fragment)
chain: QIVAVNVPPEDQDGYGDDSDNFYGYGTGALPDTLSRQTPSTWKDVWLLTATPTAPEPTSSNTETAFTSVLPAGEKPEEGEPVLHVEAEPGFTARDKEKEVTTRPRETVQLPITQRASTVRVTTAQAAVTSHPHGGMQPGLHETSAPTAPGQPDHQPPRVEGGGTSVIKEVVEDGTANQLPAGEGSGEQDFTFETSGENTAVAAVEPGLRNQPPVDEGATGASQSLLDRKEVLG
modifications: p-propargyltyrosine (pPY) at 37, 45 and 47, each joined by CuAAC to azido-heparin (azHEP)
B2: the figures for the EC50 in assay [1], in assay [2] and in assay [3] were 0.5 nM, 0.3 nM and 0.3 nM, respectively. The “EC50 … with soluble non-tagged FGF2” value in assay [4] was 8 pM.

B3: mSDC1: commercial glycosylated, mammalian expressed recombinant mouse SDC1 ectodomain (domain or fragment, UniProt P18828 23-255, looked up)
chain: QIVAVNVPPEDQDGSGDDSDNFSGSGTGALPDTLSRQTPSTWKDVWLLTATPTAPEPTSSNTETAFTSVLPAGEKPEEGEPVLHVEAEPGFTARDKEKEVTTRPRETVQLPITQRASTVRVTTAQAAVTSHPHGGMQPGLHETSAPTAPGQPDHQPPRVEGGGTSVIKEVVEDGTANQLPAGEGSGEQDFTFETSGENTAVAAVEPGLRNQPPVDEGATGASQSLLDRKEVLG
modifications: native GAG chains from the mammalian host (CS predominant over HS by the paper's disaccharide analysis)
Turning to B3, the EC50 was over 100 nM in assay [1] and over 20 nM in assay [2]. Besides, in assay [4], the “EC50 … with soluble non-tagged FGF2” value worked out at 4000 pM.
